Laboratory results taken from paper PMC6699109, “A GH51 α-L-arabinofuranosidase from Talaromyces leycettanus strain JCM12802 that selectively drives synergistic lignocellulose hydrolysis” (Microbial Cell Factories, 2019).

Substrate: O=[N+]([O-])c1ccc(O[C@@H]2O[C@@H](CO)[C@H](O)[C@H]2O)cc1
Assay: purified protein
Type: biochemical, Evansstolkia leycettana
Conditions: 0.1 M McIlvaine buffer pH 3.5, 55 °C, 5 min, 0.1–5 mM substrate

B1: TlAbf51 (Evansstolkia leycettana) (protein)
chain: MKTLPALAGGLAVAVTYLSGLAFAIDLTVSKTGGNASSPLLYGIMFEDINNSGDGGIHGQLLKNNGFQGNNPGLTAYAAVGNVTLSQDTSNPLSSAITSSLKVSVPPGTTGYVGFANTGYAGVPVVATTYANYFWMKGKYSGTINLRLVGTSSGIVYASHNITVHSTDSQFTYYDTSFTSSASPDGNNEWQLLFDGSQVAGSSLNFGLVQLFPPTYHSRYNGLRNDVASFLEEIKPSFLRFPGGNNLEGASPADRWKWNATIGPVVDRPGRQGDWGYPNTDALGLDEYLYWCEDMGMEPVLAVWSGLSLGGGIVSGSALDPYVDDIMNELEYLLGDMSTAGGRLRAQNGRTEPWPIKHVEVGNEDNLSSGCGTYASRFTQIYNAIHAAYPDITVIASTTDASCLPSSILEGVITDIHHYLNPDQFVALFNEWDNWPRTHPIFVGEYASTHNSDGSQTYWTRMRGSCGEAVYMIGMERNSDIVKMASYAPLLEHFNLAEWSPDLFGLDSSPDSITGSTSYYVQKMFSTNRGSTILPVTSDAGFGPVYWVASVSGSTYYVKLANYGSASETVTINIDGTKSGTLEMLSGAEMGSNYPHNVTITPQTSSVSGSGSFTVTMPAWAVAVLAVS
notes: secreted from Pichia pastoris GS115 (pPIC9, EcoRI/NotI), purified
B1 was tested, and the Km was 0.28 ± 0.01 mM and the kcat was 1600 s⁻¹.
